Data taken from the DeepSol protein solubility set.

assay: soluble on expression in E. coli; label from the status in PepcDB or PDB records

Row | Sequence | soluble on expression in E. coli
1 | MGSDKIHHHHHHMNKELETLIMSAVDLPTIPVVATKVIELIEQEDVTIEKLATAVSSDPAVAARILKLSNSAYYGCQRQINTLSAAIMLLGFKTLKSLVIAASLKQLNRRFGLTEKMLWEHSVGAALAGRVIATQGRFINEETGFLVGLFHDLGKTIMSNRDPQKFQGVMMRCYNEGIPFAEAERSVYPYSHAEVGALVIRKWNFPESLSTAIMHHHQFGSAPITDQYDLFLTATASLANKFCKKLGIGDRDADDDLNLTNAPEAMLLGFTSDTAEKALATFQETFEENKSFFLND | not soluble
2 | MSLNIETKKVAVEEISAAIANAQTLVVAEYRGISVSSMTELRANARKEGVYLRVLKNTLARRAVQGTSFAELADQMVGPLVYAASEDAVAAAKVLHQFAKKDDKIVVKAGSYNGEVMNAAQVAELASIPSREELLSKLLFVMQAPVSGFARGLAALAEKKAGEEAA | not soluble
3 | MGSDKIHHHHHHKPGEVWPDDKGVHINAHGGGILRVGDTYYWFGEHKTEGSAGNLAQVGVHCYSSKDLYNWKDEGIALSVVPDDTTSHIVKGCVLERPKVIYNKKNDQYVMWFHLEPRGAGYSGALSGVAVSKNVAGPYSFVNAFRPNAGFWPVNVQELHKQPCTFSADLRFSGGELPAHPDSLNLLGRDQISGQMARDMNLFVDDDGIAYHIYSSEENSTLHISQLTDDYTSYSGKYARFFPGRFMEAPALFKQKGKYYLIMSGCTGWAPNAGRSAVASSIWGPWKELENPFRGENSEVSFYSQSTYVLPVPGHADRFIYMGDRWTPENAIDGRYIWLPIRFEGEQPVIEWRSEWSY | not soluble
4 | MSLKVREEKLRTIIEWSEKNEDVRVLLLTSSLVNPLALVDEFSDLDIEFVFEDNTNYISDKSWTLKFGNPIAMIEEDESCFNHKHAMKMLLYEDGVKVDFKLYSKSKFIKETQEKELPEDWDIGYKILIDKDGITKQMLKPTYQISIIKKPSEKEFQNLINDFWWDTTYVAKCLVRDEIFYAKFMSETVIRTEYLIPLIEWHIASEHNWNITTNKYGRLFKKYLNQEMWAKTEQTFSGSDIKENWTALFSMTDLVSEIGTELSKKLEYKYPDKLENDIRKYLAGLKPKTEGHHHHHH | soluble
5 | MKISSIDSIFAAWDGSITEARRLQSDMAERIVLKDEPNLLSEPTLLAGFDVGFEDEGRTTRAAAVLMNAGDLRLLETHVVRVPTSMPYVPGLLSFRELPALLQALTQLSRIPALVFVDGHGIAHPRRLGIAAHFGLVTNLPCIGVAKKRLVGDFVEPGTAFGEHTPILLHGTQVGWALRSKMHCKPLIISPGHKVSLHSALTWTQRCLTGYRLPEPTRQADRLASRRGQKIVSDLPSLLLEHHHHHH | soluble
6 | MSFALGQRWISDTESDLGLGTVVALDARTVTLMFAASEENRVYARSDAPVTRVIFNVGDVVDSQQGWSLQVEQVVEDQGVYTYLGTRVDTEESGVALREIFLSNQIRFNKPQDKLFAGQIDRMDNFVLRY | not soluble
7 | MGSDKIHHHHHHMASSGTEHDAMRARLVDVAQAIVEERGGAGLTLSELAARAGISQANLSRYFETREDLMEAIADYWFHPMVEIMEDVLASDLPPRRKMYEFFARRFVVMRRKWEADPVKLQTYIEVGNDYFEQVRSYIDLADHYLGEIIGEAMSDGAFSGLEVDETISLVNQMCAPYCALNTMTTFMERLSEDKLARIVDAVFDGLSAQDRGARSLTGLRAA | not soluble
8 | MGHHHHHHSHLKDNRVVTMEVEARNLDKKDFLGKSDPFLEFFRQGDGKWHLVYRSEVIKNNLNPTWKRFSVPVQHFCGGNPSTPIQVQCSDYDSDGSHDLIGTFHTSLAQLQAVP | not soluble
9 | MSLGNARMYEALRDYGDRFDTVGIFTFEVDETGTITETGTSISSMLPYIQKWPHIKWLLTIMNHGIANIFTALRNNENGAKDKFLTEIIRIMNKYPWCAGVDIDLERGGGYENKDAANALFRDIYNTVKSYDATKLVNICLPGMIGVQGSVGGENWCVYADLNDYCDTAAIMSYGMAWAGSAPGPVSPRDWLEGIYDYAVSVMSPDKIFMGLPAYGWNWRIHDTPENLGITYRGVSNTYYAAKYWMTGVYNFTGDAPPQPFIPIVAYWDDYNKVPWALPHVYDYMEGWDAVSWEYPLLKGVYNRRRYLTSYGKEQKAEFGTIYIDRNGVPDEYEGNVIITDEMTSLGDAQASAEYRFEIREAGYYDIAVQLCFPYWDKNAIIVSLDGISKTFSENEGHHHHHH | not soluble
10 | MGSDKIHHHHHHMDFIEVYPNAIPDELCDRLISTLEQHPGVVDGRTGNGVDIEKKLSRDLTLDSFADLIPLRNELLSHALKGTVEYFDKYSMALMGAVAVKVADNQGQPVTLNPDNYAELGHPRADALVKYLYRSGTINVQKYPKGKGGYPHWHSEQFPQAGHNEALHRVVLYMFYLNDVEEGGETEFFYQGRKLKPQKGTMVIAPAGFTHTHRGNVPVSGDKYIATSWVMFNRAEQLYVVG | not soluble
11 | MGSDKIHHHHHHMLRKSLILVLTGALTGLFSSISQGAETLSVATDAIAADFYPATQAGPQYGVLVLGGAEGGKPESLAKAIAHEGHPVLSLAYFNDKGLPQELEQIPLEYFAKAKVWLLNQANVRQDGLILVGWSKGAELSLLLASQDPLFSKVVAIAPSSVIWAGFLKDWTKTPSSSWTQGGKALDFVPFRPTGEVKGLLDLYSQSLQNAKAGQGRIPVENIKGDVVLLTGSNDEIWPSNLMAKALCQRMDTAGTQGSCTHINFEGLDHLLGEKFLDSNDAMHKQFMGFLEAE | not soluble
12 | MNNLMPAELAPQINAHFNGKFEVELKYRLADREAFWARLSAKSPEVMLEDNLEHDCYFDSPSASLAAQHKSLCIREMQPSGIRLWIVKGPEKDRCEAVNITDANKAKSMLRTLGYQCVLEIKKRRSVYFLGQFHLTLDRLEGLGDFAELAIMTDDEAMLPVYEAQLVALAAELGLNESQREFLSYRQLQQALQQLEHHHHHH | not soluble
13 | MSLTKDPEWLTKEFAGNPIRTGRTIEDPDFPRIAITYSIQENEDNSKQIQDEMKDIIKDYNDYYHTAWSIEDIERYNGDINNRLARKKAEFKEFGKQIDLVIVVDRLLTGFDAPTIQTLFVDRNLSYANLIQAFSRTNRTYPGKTKGLIVTFRKPSTMEQNVKDATKLYSEAQEESDLVYPTYDESKKRFKKAHKLLTTLVPNPTDINEHSPLEIRIEFVKAFQELNNTYEALVTYDEYNDDMEKSKVLQEQINTLEEYIGVYNTVKGSLVDEGAQDGPGPDFSGIEFYGENAIKVYDIDSTYIDRLLGTYSANNQNIRDEIEKALQKLKKLEIVKDVYRAMLNAIDTKKIDSEEDILVVKRRFFTESYDKAIKEFANTWFVEGNELHLSAIQYVIGSDPIPNIRGIINSKQFDKYKAIHPDAKPLKYGPEMKRQWRKTLDEVIVPLADELREGHHHHHH | soluble
14 | QSTIKIVLIEDTKTLDEVVVIGYGTQKKSDVSGSVTSVSGDKLSKIPTANAEMALQGMAPGLSVNFGSGAAGSSATLQVRGVTSWKDDDGENSESNGPLVIIDGVPGNMSYLNPEDIKSISVLKDAATAAIYGSRSAAGVILIETHRGT | not soluble
15 | MGSDKIHHHHHHMKNVNQELLNHVILHKDRIPHFHKDFPLILFWSHRSGCTTLANWFFFQIGLFNEAKKYHDFIHYYEFWVYKNNTNYIPELQNGLLTAEKAVCKLVRNPYTRAVSSFLLLADNPYAIPQWESIRQYLYNDKYSNRGISFKQFLYYVRALGPNSLTMDIHFSQQYVPGEENFIQHYIPLEDFNTQITKIEHTYDLVKSNLALLTNSDHHRAHKMMYTGSYAELSITDVAFPRFPTYESFYDEETMALVTEIYAQDFEMYPYTKGIF | not soluble
16 | MENLQIGVVGVGVMGKSLALNFESKGYSVALYDISKEKVDETIEENRGKNLVGTHIVEEFVNSLESPRKILLMVNAGEITDKAIDSLVPHLDKGDILIDGGNTYFVDTIRRNKRLAEEGINFIGAGVSGGEEGALKGPSIMPGGQKDAYEKVKDMLENISAKVNNEPCCSYIGPNGAGHYVKMVHNGIEYGDMQLICEAYFFLKQTLDLTAEEFHEIFAEWNKGELNSYLIEITADIFKKKDEETGKPLVDVILDTAGQKGTGKWTSQSALDLGISLPIITESVFARCISALKEERVNASKVLSGPKDKTAIGVEKAELIEAVRQALYMSKICSYAQGFTQLKAASEEYNWNLDFGSISMLWRGGCIIRAAFLQNIKEAYETNTDLPNLLLDPYFKEIVESYQGGLRQIISMAVQQGIPIPAFSAAISYYDSYRTAKLPANLLQAQRDYFGAHTYKRVDKEGTFHTKWI | not soluble
